Experimental data from paper PMC9482650, “Quantitative fragmentomics allow affinity mapping of interactomes” (Nature Communications, 2022).
Each block holds one binder with its values, some of them ahead of it.

Columns and labels:
Experiment in all cases: holdup assay
Design in all cases: key: below the threshold = too weak to quantify, mostly under pKd 3.1 to 4
[1] = target: PDZRN4_1, Q6ZMN7
[2] = target: T1, PARD3B_1, Q8TEW8
T1 sequence (Q8TEW8 196-299, limits assumed, looked up): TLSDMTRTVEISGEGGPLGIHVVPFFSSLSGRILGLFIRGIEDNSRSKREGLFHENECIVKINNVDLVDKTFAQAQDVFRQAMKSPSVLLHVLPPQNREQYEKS

[3] = target: T2, PDZD7_3, Q9H5P4
T2 sequence (Q9H5P4 857-944, limits assumed, looked up): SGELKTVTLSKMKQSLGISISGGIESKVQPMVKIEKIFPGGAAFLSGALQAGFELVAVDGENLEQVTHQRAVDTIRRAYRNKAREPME

[4] = target: MAGI1_2, Q96QZ7
[5] = target: MAGI2_4, Q86UL8
[6] = target: T3, PCLO, Q9Y6V0
T3 sequence (Q9Y6V0 4491-4600, limits assumed, looked up): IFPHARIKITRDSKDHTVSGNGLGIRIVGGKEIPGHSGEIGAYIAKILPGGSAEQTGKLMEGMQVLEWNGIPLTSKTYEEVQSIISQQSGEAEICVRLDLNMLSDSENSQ

[7] = target: T4, GRIP1_3, Q9Y3R0
T4 sequence (Q9Y3R0 247-346, limits assumed, looked up): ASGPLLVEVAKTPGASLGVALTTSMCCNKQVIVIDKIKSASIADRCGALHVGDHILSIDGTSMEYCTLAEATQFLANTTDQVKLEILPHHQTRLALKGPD

[8] = target: IL16_1, Q14005
[9] = target: T5, SHANK1, Q9Y566
T5 sequence (Q9Y566 658-767, limits assumed, looked up): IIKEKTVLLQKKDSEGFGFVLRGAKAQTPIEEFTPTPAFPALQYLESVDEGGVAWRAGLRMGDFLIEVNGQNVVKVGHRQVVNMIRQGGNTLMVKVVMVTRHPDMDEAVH

[10] = target: Inadl_3, Q8NI35
[11] = target: T6, SNTA1, Q13424
T6 sequence (Q13424 82-180, limits assumed, looked up): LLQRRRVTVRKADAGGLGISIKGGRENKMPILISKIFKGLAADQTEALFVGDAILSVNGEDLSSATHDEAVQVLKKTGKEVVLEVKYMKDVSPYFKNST

[12] = target: T7, LNX2_2, Q8N448
T7 sequence (Q8N448 334-432, limits assumed, looked up): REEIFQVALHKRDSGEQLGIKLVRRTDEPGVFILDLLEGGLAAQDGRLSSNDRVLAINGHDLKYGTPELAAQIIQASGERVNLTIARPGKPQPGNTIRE

[13] = target: T8, DVL3, Q92997
T8 sequence (Q92997 244-331, limits assumed, looked up): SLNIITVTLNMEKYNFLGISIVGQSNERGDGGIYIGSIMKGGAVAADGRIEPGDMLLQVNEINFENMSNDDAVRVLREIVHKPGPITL

[14] = target: DLG4_2, P78352
[15] = target: FRMPD2_3, Q68DX3
[16] = target: T9, APBA3_1, O96018
T9 sequence (O96018 389-490, limits assumed, looked up): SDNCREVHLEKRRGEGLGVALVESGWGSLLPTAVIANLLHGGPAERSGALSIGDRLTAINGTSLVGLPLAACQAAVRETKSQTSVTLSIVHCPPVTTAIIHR

[17] = target: LNX1_1, Q8TBB1
[18] = target: T10, MPDZ_10, O75970
T10 sequence (O75970 1624-1722, limits assumed, looked up): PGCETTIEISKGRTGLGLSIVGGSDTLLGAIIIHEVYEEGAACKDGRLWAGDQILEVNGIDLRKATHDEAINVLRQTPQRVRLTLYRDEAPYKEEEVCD

[19] = target: GRID2IP_1, A4D2P6
[20] = target: T11, RADIL, Q96JH8
T11 sequence (Q96JH8 971-1071, limits assumed, looked up): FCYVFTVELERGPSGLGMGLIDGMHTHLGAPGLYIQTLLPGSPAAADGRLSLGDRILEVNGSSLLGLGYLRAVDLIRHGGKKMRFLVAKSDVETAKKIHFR

[21] = target: T12, MPDZ_5, O75970
T12 sequence (O75970 695-796, limits assumed, looked up): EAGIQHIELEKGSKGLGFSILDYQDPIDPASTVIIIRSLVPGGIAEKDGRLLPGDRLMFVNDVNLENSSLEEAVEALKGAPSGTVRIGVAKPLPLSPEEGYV

[22] = target: T13, SNTG1, Q9NSN8
T13 sequence (Q9NSN8 52-150, limits assumed, looked up): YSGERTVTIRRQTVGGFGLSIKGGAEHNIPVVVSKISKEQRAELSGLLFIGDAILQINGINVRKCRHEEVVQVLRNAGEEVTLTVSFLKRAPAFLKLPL

[23] = target: LIMK2, P53671
[24] = target: CASK, O14936
[25] = plain residues with an end cap or a label only (N-terminal biotin on a linker: ado-ado)
[26] = modified: phospho on T at position -2 from the C-terminal residue
[27] = modified: phospho on T at position -1 from the C-terminal residue

Sequence of MAGI1_2, Q96QZ7 (Q96QZ7 456-580): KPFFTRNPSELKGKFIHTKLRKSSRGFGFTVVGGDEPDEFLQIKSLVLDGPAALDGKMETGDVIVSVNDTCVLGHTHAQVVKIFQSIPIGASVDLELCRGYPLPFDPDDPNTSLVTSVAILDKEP
Sequence of LNX1_1, Q8TBB1 (Q8TBB1 261-371): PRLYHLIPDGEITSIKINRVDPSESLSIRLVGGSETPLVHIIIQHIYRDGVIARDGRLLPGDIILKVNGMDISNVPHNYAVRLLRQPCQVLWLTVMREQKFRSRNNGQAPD
Sequence of PDZRN4_1, Q6ZMN7 (Q6ZMN7 213-318): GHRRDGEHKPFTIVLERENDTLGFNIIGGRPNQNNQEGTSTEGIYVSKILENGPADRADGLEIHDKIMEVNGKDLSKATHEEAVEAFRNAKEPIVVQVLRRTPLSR
Sequence of FRMPD2_3, Q68DX3 (Q68DX3 1073-1166): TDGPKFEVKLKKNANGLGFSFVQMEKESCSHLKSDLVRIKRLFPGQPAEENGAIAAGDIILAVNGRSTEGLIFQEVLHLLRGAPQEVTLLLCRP
Sequence of LIMK2, P53671 (P53671 143-248): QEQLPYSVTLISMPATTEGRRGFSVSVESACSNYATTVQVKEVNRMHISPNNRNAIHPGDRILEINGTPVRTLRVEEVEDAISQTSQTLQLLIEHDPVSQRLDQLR
Sequence of Inadl_3, Q8NI35 (Q8NI35 359-469): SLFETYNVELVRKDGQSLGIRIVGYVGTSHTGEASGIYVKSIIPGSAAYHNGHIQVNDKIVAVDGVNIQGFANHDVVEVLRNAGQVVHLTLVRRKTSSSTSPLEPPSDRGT
Sequence of CASK, O14936 (O14936 487-570): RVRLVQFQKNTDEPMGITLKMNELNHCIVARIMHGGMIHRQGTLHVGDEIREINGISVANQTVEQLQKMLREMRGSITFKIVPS
Sequence of DLG4_2, P78352 (P78352 155-259): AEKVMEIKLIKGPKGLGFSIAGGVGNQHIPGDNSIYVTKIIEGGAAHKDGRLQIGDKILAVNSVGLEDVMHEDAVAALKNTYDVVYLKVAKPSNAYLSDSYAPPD
Sequence of GRID2IP_1, A4D2P6 (A4D2P6 1-87): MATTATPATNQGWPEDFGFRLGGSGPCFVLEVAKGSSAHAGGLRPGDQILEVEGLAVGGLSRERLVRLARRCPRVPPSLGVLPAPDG
Sequence of IL16_1, Q14005 (Q14005 210-306): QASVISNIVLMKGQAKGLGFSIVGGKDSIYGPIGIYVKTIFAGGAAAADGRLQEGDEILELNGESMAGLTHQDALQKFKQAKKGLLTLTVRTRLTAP
Sequence of MAGI2_4, Q86UL8 (Q86UL8 772-865): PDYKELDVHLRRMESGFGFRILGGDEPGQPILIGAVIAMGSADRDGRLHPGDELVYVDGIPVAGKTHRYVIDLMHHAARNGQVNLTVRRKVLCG

Binder: SMLNRRTTPV [CACNG4, Q9UBN1]
- pKd [1, 25]: 3.75
- pKd [2, 25]: below the threshold
- pKd [3, 25]: 4.07
- pKd [4, 25]: 4.82
- pKd [5, 25]: 3.52
- pKd [6, 25]: below the threshold
- pKd [7, 25]: below the threshold
- pKd [8, 25]: below the threshold
- pKd [9, 25]: below the threshold
- pKd [10, 25]: below the threshold
- pKd [11, 25]: 3.86
- pKd [12, 25]: below the threshold
- pKd [13, 25]: below the threshold
- pKd [14, 25]: 4.88
- pKd [15, 25]: below the threshold
- pKd [16, 25]: below the threshold
- pKd [17, 25]: below the threshold
- pKd [18, 25]: 3.92
- pKd [19, 25]: below the threshold
- pKd [20, 25]: below the threshold
- pKd [21, 25]: below the threshold
- pKd [22, 25]: below the threshold
- pKd [23, 25]: below the threshold
- pKd [24, 25]: below the threshold

Binder: RRVRKLPSTTL [RPS6KA1_-2P, Q15418]
- pKd [1, 26]: below the threshold
- pKd [2, 26]: 3.9
- pKd [3, 26]: 3.5
- pKd [4, 26]: below the threshold
- pKd [5, 26]: below the threshold
- pKd [6, 26]: below the threshold
- pKd [7, 26]: below the threshold
- pKd [8, 26]: below the threshold
- pKd [9, 26]: below the threshold
- pKd [10, 26]: below the threshold
- pKd [11, 26]: below the threshold
- pKd [12, 26]: below the threshold
- pKd [13, 26]: below the threshold
- pKd [14, 26]: below the threshold
- pKd [15, 26]: below the threshold
- pKd [16, 26]: below the threshold
- pKd [17, 26]: below the threshold
- pKd [18, 26]: below the threshold
- pKd [19, 26]: below the threshold
- pKd [20, 26]: below the threshold
- pKd [21, 26]: below the threshold
- pKd [22, 26]: below the threshold
- pKd [23, 26]: below the threshold
- pKd [24, 26]: below the threshold

Binder: GQSVDLVFPV [AKIP1, Q9NQ31]
- pKd [1, 25]: below the threshold
- pKd [2, 25]: 3.8
- pKd [3, 25]: below the threshold
- pKd [4, 25]: below the threshold
- pKd [5, 25]: below the threshold
- pKd [6, 25]: below the threshold
- pKd [7, 25]: below the threshold
- pKd [8, 25]: below the threshold
- pKd [9, 25]: below the threshold
- pKd [10, 25]: below the threshold
- pKd [11, 25]: below the threshold
- pKd [12, 25]: 3.87
- pKd [13, 25]: below the threshold
- pKd [14, 25]: below the threshold
- pKd [15, 25]: below the threshold
- pKd [16, 25]: below the threshold
- pKd [17, 25]: 3.66
- pKd [18, 25]: below the threshold
- pKd [19, 25]: below the threshold
- pKd [20, 25]: 3.97
- pKd [21, 25]: below the threshold
- pKd [22, 25]: below the threshold
- pKd [23, 25]: below the threshold
- pKd [24, 25]: below the threshold

Results, then the binder that gave them:

- pKd [1, 27]: 4.31
- pKd [2, 27]: 4.04
- pKd [3, 27]: 4.91
- pKd [4, 27]: 4.32
- pKd [5, 27]: 4.32
- pKd [6, 27]: below the threshold
- pKd [7, 27]: 3.34
- pKd [8, 27]: 3.46
- pKd [9, 27]: 4.06
- pKd [10, 27]: 3.76
- pKd [11, 27]: 3.85
- pKd [12, 27]: below the threshold
- pKd [13, 27]: below the threshold
- pKd [14, 27]: 3.85
- pKd [15, 27]: below the threshold
- pKd [16, 27]: below the threshold
- pKd [17, 27]: 4.63
- pKd [18, 27]: below the threshold
- pKd [19, 27]: below the threshold
- pKd [20, 27]: 3.52
- pKd [21, 27]: 3.5
- pKd [22, 27]: 3.73
- pKd [23, 27]: below the threshold
- pKd [24, 27]: below the threshold
Binder: RRVRKLPSTTL [RPS6KA1_-1P, Q15418]

- pKd [1, 25]: 3.9
- pKd [2, 25]: below the threshold
- pKd [3, 25]: 4.71
- pKd [4, 25]: below the threshold
- pKd [5, 25]: below the threshold
- pKd [6, 25]: below the threshold
- pKd [7, 25]: below the threshold
- pKd [8, 25]: below the threshold
- pKd [9, 25]: 3.86
- pKd [10, 25]: below the threshold
- pKd [11, 25]: 3.95
- pKd [12, 25]: below the threshold
- pKd [13, 25]: below the threshold
- pKd [14, 25]: below the threshold
- pKd [15, 25]: below the threshold
- pKd [16, 25]: below the threshold
- pKd [17, 25]: 3.67
- pKd [18, 25]: below the threshold
- pKd [19, 25]: below the threshold
- pKd [20, 25]: below the threshold
- pKd [21, 25]: below the threshold
- pKd [22, 25]: below the threshold
- pKd [23, 25]: below the threshold
- pKd [24, 25]: below the threshold
Binder: LEPAVRSSEL [SH2D3C, Q8N5H7]

- pKd [1, 25]: below the threshold
- pKd [2, 25]: 3.59
- pKd [3, 25]: below the threshold
- pKd [4, 25]: below the threshold
- pKd [5, 25]: below the threshold
- pKd [6, 25]: below the threshold
- pKd [7, 25]: below the threshold
- pKd [8, 25]: below the threshold
- pKd [9, 25]: below the threshold
- pKd [10, 25]: below the threshold
- pKd [11, 25]: below the threshold
- pKd [12, 25]: below the threshold
- pKd [13, 25]: below the threshold
- pKd [14, 25]: below the threshold
- pKd [15, 25]: below the threshold
- pKd [16, 25]: below the threshold
- pKd [17, 25]: below the threshold
- pKd [18, 25]: below the threshold
- pKd [19, 25]: below the threshold
- pKd [20, 25]: below the threshold
- pKd [21, 25]: below the threshold
- pKd [22, 25]: below the threshold
- pKd [23, 25]: below the threshold
- pKd [24, 25]: below the threshold
Binder: LSEFKAMDSF [CTNNA2, P26232]
